Measured values published in patent US20220204601A1 (ADEL, published 2022).
One block for each binder: values may come before it. Ends that are not written are not given here.

Assays:
[1] = target: T1, Tau K280A protein (human, UniProt P10636 2-758); assay: western blot
T1 construct: Tau protein with lysine 280 replaced by alanine, not acetylated
Procedure: (§1) In order to identify specific binding of the ADEL-Y01m antibody prepared in Preparation Example 2 to acetylated tau protein, the wild-type tau protein and the tau protein (Tau K280A) in which the 280th amino acid lysine is replaced with alanine were acetylated in vitro. Here, acetylation of the wild-type Tau protein and the Tau K280A protein was performed in the same manner as in the preparation method of the acetylated K18 protein fragment in Preparation Example 1. Then, an antigen-antibody specific binding reaction of the ADEL-Y01m antibody was checked through western blotting.
(§2) First, the concentrations of the wild-type Tau protein and the Tau K280A protein were measured through Bradford Assay. Each of the proteins was mixed with 4× sample buffer (60 mM Tris-HCl [pH 6.8], 2% w/v SDS, 25% v/v glycerol, 14.4 mM v/v β-mercaptoethanol, and bromophenol blue). Thereafter, each protein was electrophoresed on an SDS-PAGE gel. Then, the electrophoresed gel was separated and transferred onto a PVDF membrane (BioRad, California, USA). Treatment with a blocking buffer (0.1% v/v Tween-20 [PBST], 3% w/v BSA, or 5% v/v skim milk in PBS buffer) was performed and reaction was allowed to proceed for 1 hour. Then, treatment with an anti-acetyl-lysine antibody (anti-acetyl-lysine, Cell Signaling, 9441) or ADEL-Y01m antibody as a primary antibody was performed and reaction was allowed to proceed at 4° C. overnight. The next day, the PVDF membrane was washed three times with a washing buffer (0.1% v/v Tween-20 [PBST] in PBS buffer), and then treated with HRP-labeled anti-mouse IgG antibody (Bioxcell, BE0083). The PVDF membrane was treated with a chemiluminescent reagent (Thermo Fisher Scientific). Then, measurement and analysis were performed using x-ray film and ImageJ software (NIH, Bethesda, Md.).

[2] = target: T2, acetylated Tau K280A protein (human, UniProt P10636 2-758, acetylated in vitro with P300 enzyme and acetyl CoA; sites not stated); assay: western blot
T2 construct: Tau K280A acetylated in the same manner as the acetylated K18 fragment; also called Tau K280A (acetylated)
Procedure: as §1, §2

[3] = target: T3, Tau (Acetylation -); assay: western blot
T3 construct: also called non-Ac tau protein; non-acetylated wild type tau protein
Procedure: as §1, §2

[4] = target: T4, K280-ac protein fragment (human); assay: BLI, Octet K2; antibody fixed on AR2G biosensor, K280-ac fragment in solution
T4 construct: also called mAC
T4 peptide: VQIINK(Ac)KLDLSN
Procedure: (§3) An affinity between the K280-ac protein fragment prepared in Preparation Example 1 and the ADEL-Y01m antibody prepared in Preparation Example 2 was measured through the Octet® K2 System (Fortebio).
(§4) The ADEL-Y01m antibody was fixed on AR2G biosensor according to the manufacturer's manual. The surface of the biosensor was hydrated with water for 10 minutes, and then activated using a mixture of 20 mM 1-ethyl-3-[3-dimethylaminopropyl] carbodiimide hydrochloride (EDC) and 10 mM N-hydroxysulfosuccinimide (s-NHS). The ADEL-Y01m antibody was fixed on the activated biosensor using 10 mM sodium acetate buffer (pH 5.0) and quenched with 1M ethanol amine (pH 8.0) for 5 minutes. The biosensor on which the ADEL-Y01m antibody is fixed was immersed in 1×PBS buffer (pH 7.4) for 60 seconds, to establish a baseline. Then, the biosensor was immersed for 60 seconds in wells containing different concentrations of the K280-ac protein fragment (antigen) or BSA-bound peptide. Thereafter, the biosensor was immersed again in 1×PBS buffer (pH 7.4) for 10 minutes so that dissociation occurs. The experimental data were evaluated by Octet Data Analysis (SW version: 9.0.0.10).

[5] = target: T4, K280-ac protein fragment; assay: Octet K2 system, antibody fixed on AR2G biosensor, antigen in solution
Procedure: as §3, §4

[6] = target: T4, K280-ac protein fragment; assay: ELISA on K280-ac coated at 250 ng/well, HRP anti-human IgG
Procedure: (§5) In addition, binding of the K280-ac protein fragment prepared in Preparation Example 1 with the ADEL-Y01h (v01 to v12) antibodies prepared in Preparation Example 2 was measured by ELISA.
(§6) First, plates were treated with the K280-ac protein fragment at 250 ng/well and reaction was allowed to proceed at 4° C. overnight. The next day, washing with a washing buffer was performed three times, and then treatment with a primary antibody was performed with 8 concentrations (2 μg, 1 μg, 0.5 μg, 0.25 μg, 0.12 μg, 0.06 μg, 0.03 μg, 0.01 μg). As a secondary antibody, HRP-labeled anti-human IgG antibody was used.

[7] = target: T3, Tau (Acetylation -); assay: plate assay as drawn: capture Ab 1ug/well, antigen titrated
[8] = target: T4, K280-ac protein fragment; assay: ELISA, K280-ac coated at 250 ng/well
Procedure: as §5, §6

T3 sequence (tau protein, as listed by the source): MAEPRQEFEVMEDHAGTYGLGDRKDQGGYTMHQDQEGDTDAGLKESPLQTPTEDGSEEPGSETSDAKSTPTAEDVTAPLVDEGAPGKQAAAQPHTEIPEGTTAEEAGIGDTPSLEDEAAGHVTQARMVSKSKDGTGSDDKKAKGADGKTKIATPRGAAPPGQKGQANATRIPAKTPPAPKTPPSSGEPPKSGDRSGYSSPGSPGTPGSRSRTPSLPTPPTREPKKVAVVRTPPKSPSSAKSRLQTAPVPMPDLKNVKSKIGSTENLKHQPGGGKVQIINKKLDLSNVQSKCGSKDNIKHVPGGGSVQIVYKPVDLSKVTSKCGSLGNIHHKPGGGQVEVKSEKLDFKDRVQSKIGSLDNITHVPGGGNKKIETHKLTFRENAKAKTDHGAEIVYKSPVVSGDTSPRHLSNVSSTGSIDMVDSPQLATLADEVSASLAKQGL
T2 sequence (P10636 other isoform, or with tags, fused parts or gaps K280A K280A limits assumed): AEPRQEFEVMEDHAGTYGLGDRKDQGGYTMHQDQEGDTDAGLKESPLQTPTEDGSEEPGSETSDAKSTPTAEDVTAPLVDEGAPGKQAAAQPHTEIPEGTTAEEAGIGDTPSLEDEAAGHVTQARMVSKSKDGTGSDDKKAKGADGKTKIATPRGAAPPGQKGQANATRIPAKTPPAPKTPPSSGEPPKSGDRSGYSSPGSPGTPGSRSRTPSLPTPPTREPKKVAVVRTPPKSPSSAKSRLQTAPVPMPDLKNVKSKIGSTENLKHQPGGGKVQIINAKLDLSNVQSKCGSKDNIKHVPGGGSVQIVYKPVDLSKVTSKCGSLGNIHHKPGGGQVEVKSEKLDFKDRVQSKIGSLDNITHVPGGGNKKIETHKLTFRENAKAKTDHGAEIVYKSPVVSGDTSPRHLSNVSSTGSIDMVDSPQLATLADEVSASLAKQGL
T1 sequence (P10636 other isoform, or with tags, fused parts or gaps K280A K280A limits assumed): as above

binding result [1]: no binding
binding result [2]: no binding
binding result [3]: no binding
Kd [4]: 0.257 nM
koff [5]: 0.000157 s⁻¹
kon [5]: 447000 M⁻¹ s⁻¹
B1: ADEL-Y01m antibody (antibody, V domains shown)
VH: EVQLEESGPSLVKPSQTLSLTCSVTGDSITSGYWNWIRKFPGNKLEYMGYIRYSGRTYYNPSLKSRISITRDTSKNQFYLQLISVTTEDTATYYCASVYFTYWGQGTLVTVSS
VL: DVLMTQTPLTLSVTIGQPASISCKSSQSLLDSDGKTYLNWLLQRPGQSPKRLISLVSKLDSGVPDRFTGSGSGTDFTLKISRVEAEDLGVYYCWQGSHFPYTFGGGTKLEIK
notes: Mouse monoclonal antibody from a hybridoma; also called Y01m01; antibody produced from the #15E5 hybridoma cell line (clone #1)

Absorbance at 450nm at 0.01ug/well [6]: 0.731
Absorbance at 450nm at 0.03ug/well [6]: 0.899
Absorbance at 450nm at 0.06ug/well [6]: 1.1
Absorbance at 450nm at 0.12ug/well [6]: 1.58
Absorbance at 450nm at 0.25ug/well [6]: 1.93
Absorbance at 450nm at 0.5ug/well [6]: 2.07
Absorbance at 450nm at 1ug/well [6]: 2.22
Absorbance at 450nm at 2ug/well [6]: 2.42
B2: ADEL-Y01h01_v01 antibody (antibody, V domains shown)
VH: EVQLQESGPGLVKPSQTLSLTCTVSGDSITSGYWNWIRQPPGKGLEYIGYIRYSGRTYYNPSLKSRVTISRDTSKNQFSLKLSSVTAADTAVYYCASVYFTYWGQGTLVTVSS
VL: DVVMTQSPLSLPVTLGQPASISCKSSQSLLDSDGKTYLNWFQQRPGQSPKRLISLVSKLDSGVPDRFSGSGSGTDFTLKISRVEAEDVGVYYCWQGSHFPYTFGQGTKLEIK
notes: Humanized ADEL-Y01m; It was detected with anti-human IgG; also called ADEL-Y01h v01
binding result [7]: no binding (tested: 100.00 (unit not printed))

binding result [8]: binds
B3: ADEL-Y01h v07 antibody (antibody, V domains shown)
VH: EVTLKESGPTLVKPTQTLTLTCTVSGDSITSGYWNWIRQPPGKALEYLAYIRYSGRTYYNPSLKSRLTITRDTSKNQVVLTMTNMDPVDTATYYCASVYFTYWGQGTLVTVSS
VL: DVVMTQSPLSLPVTLGQPASISCKSSQSLLDSDGKTYLNWFQQRPGQSPKRLISLVSKLDSGVPDRFSGSGSGTDFTLKISRVEAEDVGVYYCWQGSHFPYTFGQGTKLEIK
notes: Humanized antibody; It was detected with anti-human IgG; also called Y01h01v07
